B1: Serine/threonine-protein kinase Sgk3 (Homo sapiens), Q96BR1 (parent)
chain: MQRDHTMDYKESCPSVSIPSSDEHREKKKRFTVYKVLVSVGRSEWFVFRRYAEFDKLYNTLKKQFPAMALKIPAKRIFGDNFDPDFIKQRRAGLNEFIQNLVRYPELYNHPDVRAFLQMDSPKHQSDPSEDEDERSSQKLHSTSQNINLGPSGNPHAKPTDFDFLKVIGKGSFGKVLLAKRKLDGKFYAVKVLQKKIVLNRKEQKHIMAERNVLLKNVKHPFLVGLHYSFQTTEKLYFVLDFVNGGELFFHLQRERSFPEHRARFYAAEIASALGYLHSIKIVYRDLKPENILLDSVGHVVLTDFGLCKEGIAISDTTTTFCGTPEYLAPEVIRKQPYDNTVDWWCLGAVLYEMLYGLPPFYCRDVAEMYDNILHKPLSLRPGVSLTAWSILEELLEKDRQNRLGAKEDFLEIQNHPFFESLSWADLVQKKIPPPFNPNVAGPDDIRNFDTAFTEETVPYSVCVSSDYSIVNASVLEADDAFVGFSYAPPSEDLFL

Variants of: B1
Conditions: with itch_human ITCH

Row | Variant | effect of a mutation on the interaction
1 | MQRDHTMDYKESCPSVSIPSSDEHREKKKRFTVYKVLVSVGRSEWFVFRRYAEFDKLYNTLKKQFPAMALKIPAKRIFGDNFDPDFIKQRRAGLNEFIQNLVRYPELYNHPDVRAFLQMDSPKHQSDPSEDEDERSSQKLHSTSQNINLGPSGNPHAKPTDFDFLKVIGKGSFGKVLLAKRKLDGKFYAVKVLQKKIVLNRKEQKHIMAERNVLLKNVKHPFLVGLHYSFQTTEKLYFVLDFVNGGELFFHLQRERSFPEHRARFYAAEIASALGYLHSIKIVYRDLKPENILLDSVGHVVLTDFGLCKEGIAISDTTTTFCGTPEYLAPEVIRKQPYDNTVDWWCLGAVLYEMLYGLPPFACRDVAEMYDNILHKPLSLRPGVSLTAWSILEELLEKDRQNRLGAKEDFLEIQNHPFFESLSWADLVQKKIPPPFNPNVAGPDDIRNFDTAFTEETVPYSVCVSSDYSIVNASVLEADDAFVGFSYAPPSEDLFL [Y362A] | decreasing interaction

Source: IntAct's records for PubMed 16888620
